Laboratory results from patent publication US20260224701A1 (University of Texas, published 2026).

T1: human 2Ig-B7-H3 extracellular domain (human, UniProt Q5ZPR3 29-466)
T1 chain: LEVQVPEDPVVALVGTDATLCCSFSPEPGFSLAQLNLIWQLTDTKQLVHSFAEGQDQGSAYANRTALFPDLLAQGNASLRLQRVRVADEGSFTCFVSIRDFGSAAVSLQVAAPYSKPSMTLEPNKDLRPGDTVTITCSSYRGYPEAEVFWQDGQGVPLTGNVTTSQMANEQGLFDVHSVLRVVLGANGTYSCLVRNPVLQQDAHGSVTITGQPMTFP


Legend:
Assay in all cases: biolayer interferometry (Octet), antibody captured on the probe, extracellular domain in solution
[1] = target: T1, human 2Ig-B7-H3 extracellular domain
[2] = target: T2, Porcine 4Ig-B7-H3 extracellular domain (porcine, UniProt A0A287AJ27 27-466)
T2 construct: extracellular domain; Bought protein; also called Porcine 4Ig-B7H-3 protein
Protocol: (§1) The extracellular domains of the indicated 4Ig-B7-H3 and 2Ig-B7-H3 proteins were purchased from R&D systems. All proteins were validated by the vendor to be both pure and functional. KD values were determined utilizing capture biolayer interferometry (Octet, Molecular Devices) in “affinity” mode, wherein the […] antibody was captured on the tip of the probe and placed into solutions containing different concentrations of target extracellular domain.

[3] = target: T3, Cynomolgus 4Ig-B7-H3 extracellular domain (cynomolgus)
T3 construct: extracellular domain; Bought protein; also called Cynomolgus 4Ig-B7H-3 protein
Protocol: as §1

Kd [1] [nM] | Kd [2] [nM] | Kd [3] [nM] | Binder
13.2 | – | – | MIL33B chimeric antibody (full-length IgG) (antibody, V domains shown, also called Chimeric VH + VL; MIL33B-chimera) VH: EVQLQQSGPELVKPGASVKMSCKASGYTFTSYVMHWVRQSPGQGLEGIGYINSYSDGTKYNEKFKGKATLTSDKSSSTAYMELSGLTSEDSAVYYCARWGGLGNGAMDYWGQGTSVTVSS VL: QIVLTQSPAIMSASPGEKVTMTCSVSSSVNYMHWYQQKSGTSPKRWIYDTSKLASGVPARFSASGSGTSYSLTISSMEAEDAATYYCQQWTSNPLTFGAGTKLELKR
21.6 | – | – | MIL33B-H1-hIgG1 (antibody, V domains shown, also called AHF15945; AHF 15945) VH: QVQLVQSGAEVKKPGASVKVSCKASGYTFTSYVMHWVRQAPGQRLEWMGYINSYSDGTKYNEKFKGRVTITSDTSASTAYMELSSLRSEDTAVYYCARWGGLGNGAMDYWGQGTLVTVSS VL: EIVLTQSPATLSLSPGERATLSCSVSSSVNYMHWYQQKPGQAPRRLIYDTSKLASGIPARFSGSGSGTDYTLTISSLEPEDFAVYYCQQWTSNPLTFGQGTKLEIK
14 | – | – | MIL33B-H2-hIgG1 (antibody, V domains shown, also called AHF15938; AHF 15938) VH: QVQLVQSGAEVKKPGASVKVSCKASGYTFTSYVMHWVRQAPGQRLEWMGYINSYSDGTKYNEKFKGRATITRDTSASTAYMELSSLRSEDTAVYYCARWGGLGNGAMDYWGQGTLVTVSS VL: EIVLTQSPATLSLSPGERATLSCSVSSSVNYMHWYQQKPGQAPRRLIYDTSKLASGIPARFSGSGSGTDYTLTISSLEPEDFAVYYCQQWTSNPLTFGQGTKLEIK
43.5 | 0.559 | 0.28 | MIL33B-H3-hIgG1 (antibody, V domains shown, also called hMIL33B-H3; humanized MIL33B-H3) VH: QVQLVQSGAEVKKPGASVKVSCKASGYTFTSYVMHWVRQAPGQRLEWMGYINSYSDGTKYNEKFKGRVTITRDTSASTAYMELSSLRSEDTAVYYCARWGGLGNGAMDYWGQGTLVTVSS VL: EIVLTQSPATLSLSPGERATLSCSVSSSVNYMHWYQQKPGQAPRRLIYDTSKLASGIPARFSGSGSGTDYTLTISSLEPEDFAVYYCQQWTSNPLTFGQGTKLEIK
